These results are taken from patent US20200199533A1 (KING ABDULLAH UNIVERSITY OF SCIENCE AND TECHNOLOGY, published 2020).

Assay [1] addresses CD44 (HCELL), native glycoprotein from human HSPCs (KG1a, CD34^pos fraction) (human) (UniProt P16070). Nature of the assay: SPR; CD44 captured from KG1a lysate on Hermes-3-mAb, E-Ig injected, 150 mM NaCl; apparent rate constant; 2nd experiment. On the technique in general: Surface plasmon resonance follows binding to a sensor surface in real time, without labels.
The target in assay [2] is T1, CD34, native glycoprotein from human HSPCs (KG1a, CD34^pos-BM, CD34^pos-UCB, CD34^pos-AML) (human, UniProt P28906 32-385, native glycosylation (about 120-130 kDa form); sialylated O-glycans and tyrosine sulfation are shown to matter for selectin binding).
T1 construct: mature; also called E-selL CD34
T1 sequence (looked up): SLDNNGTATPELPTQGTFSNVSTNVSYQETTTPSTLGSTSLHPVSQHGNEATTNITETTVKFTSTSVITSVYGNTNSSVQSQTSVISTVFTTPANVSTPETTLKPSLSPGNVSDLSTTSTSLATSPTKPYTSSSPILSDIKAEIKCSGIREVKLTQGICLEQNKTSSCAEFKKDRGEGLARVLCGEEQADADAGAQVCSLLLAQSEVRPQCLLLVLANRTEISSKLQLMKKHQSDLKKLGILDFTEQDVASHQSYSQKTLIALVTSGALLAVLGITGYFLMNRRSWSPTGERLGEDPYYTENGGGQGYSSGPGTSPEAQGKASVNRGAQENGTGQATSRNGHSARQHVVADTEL
Nature of the assay: SPR, apparent rate constant: includes loss of CD34 or CD34⋅E-Ig from 4H11-mAb and of E-Ig from CD34⋅4H11-mAb; KG1a lysate.

The target in assay [3] is T2, PSGL-1, native glycoprotein from human HSPCs (KG1a, CD34^pos-BM) (human, UniProt Q14242 42-412, native glycosylation and tyrosine sulfation).
T2 construct: mature; also called P-selectin glycoprotein ligand-1
T2 sequence (looked up): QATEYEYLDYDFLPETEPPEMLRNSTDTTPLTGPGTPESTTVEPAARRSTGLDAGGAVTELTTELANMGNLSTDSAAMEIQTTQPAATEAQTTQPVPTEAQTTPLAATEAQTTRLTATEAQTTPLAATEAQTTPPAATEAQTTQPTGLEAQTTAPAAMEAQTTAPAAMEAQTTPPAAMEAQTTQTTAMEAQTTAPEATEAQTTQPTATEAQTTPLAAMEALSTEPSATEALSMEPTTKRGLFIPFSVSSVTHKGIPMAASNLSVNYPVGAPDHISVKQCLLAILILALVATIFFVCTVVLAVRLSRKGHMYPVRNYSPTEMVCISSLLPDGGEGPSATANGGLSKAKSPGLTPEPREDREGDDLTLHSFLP
Put plainly: SPR; PSGL-1 captured from KG1a lysate on KPL-1-mAb, E-Ig injected, 150 mM NaCl; apparent rate constant; 2nd experiment.

Assay [4] addresses T2, PSGL-1, native glycoprotein from human …. Nature of the assay: SPR; PSGL-1 captured from KG1a lysate on KPL-1-mAb, E-Ig injected, 150 mM NaCl; apparent rate constant; 3rd experiment.
Assay [5] has as its target T1, CD34, native glycoprotein from human …. Put plainly: SPR; CD34 captured from KG1a lysate on 563-mAb, E-Ig injected (3.9-2000 nM), 150 mM NaCl; steady-state model; mean ± SEM.
Assay [6] deals with T3, CD43, native glycoprotein from KG1a cells (human, UniProt P16150 20-400, native glycosylation).
T3 construct: mature
T3 sequence (looked up): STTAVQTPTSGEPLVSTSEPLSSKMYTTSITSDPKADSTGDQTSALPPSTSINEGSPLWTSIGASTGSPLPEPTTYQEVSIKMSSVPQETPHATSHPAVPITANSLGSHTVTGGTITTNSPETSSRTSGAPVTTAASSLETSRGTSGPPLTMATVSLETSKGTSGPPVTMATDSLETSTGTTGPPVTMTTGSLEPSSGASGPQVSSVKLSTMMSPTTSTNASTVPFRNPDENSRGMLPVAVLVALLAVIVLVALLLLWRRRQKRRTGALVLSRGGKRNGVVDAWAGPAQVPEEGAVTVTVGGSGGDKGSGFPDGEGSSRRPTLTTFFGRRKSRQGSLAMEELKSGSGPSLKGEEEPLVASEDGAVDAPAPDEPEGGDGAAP
Put plainly: SPR; CD43 captured from KG1a lysate on polyclonal CD43 Ab, E-Ig injected, 150 mM NaCl; apparent rate constant; mean ± SEM.

For assay [7], the target named is T1, CD34, native glycoprotein from human …. Put plainly: SPR; CD34 captured from KG1a lysate on 563-mAb, E-Ig injected (3.9-2000 nM), 150 mM NaCl; steady-state model; 1st experiment.
The target in assay [8] is T2, PSGL-1, native glycoprotein from human …. Nature of the assay: SPR; PSGL-1 captured from KG1a lysate on KPL-1-mAb, E-Ig injected (3.9-2000 nM), 150 mM NaCl; steady-state model; mean ± SEM.
Assay [9] has as its target T3, CD43, native glycoprotein from KG1a …. Put plainly: SPR; CD43 captured from KG1a lysate on polyclonal CD43 Ab, E-Ig injected, 150 mM NaCl; apparent rate constant; 2nd experiment.
The target in assay [10] is T2, PSGL-1, native glycoprotein from human …. Put plainly: SPR; PSGL-1 captured from KG1a lysate on KPL-1-mAb, E-Ig injected (3.9-2000 nM), 150 mM NaCl; steady-state model; 3rd experiment.
Assay [11] has as its target T3, CD43, native glycoprotein from KG1a …. Put plainly: SPR; CD43 captured from KG1a lysate on polyclonal CD43 Ab, E-Ig injected (3.9-2000 nM), 150 mM NaCl; steady-state model; mean ± SEM.

Chain of CD44 (HCELL), native glycoprotein from human HSPCs (KG1a, CD34^pos fraction) (human) (P16070 21-742): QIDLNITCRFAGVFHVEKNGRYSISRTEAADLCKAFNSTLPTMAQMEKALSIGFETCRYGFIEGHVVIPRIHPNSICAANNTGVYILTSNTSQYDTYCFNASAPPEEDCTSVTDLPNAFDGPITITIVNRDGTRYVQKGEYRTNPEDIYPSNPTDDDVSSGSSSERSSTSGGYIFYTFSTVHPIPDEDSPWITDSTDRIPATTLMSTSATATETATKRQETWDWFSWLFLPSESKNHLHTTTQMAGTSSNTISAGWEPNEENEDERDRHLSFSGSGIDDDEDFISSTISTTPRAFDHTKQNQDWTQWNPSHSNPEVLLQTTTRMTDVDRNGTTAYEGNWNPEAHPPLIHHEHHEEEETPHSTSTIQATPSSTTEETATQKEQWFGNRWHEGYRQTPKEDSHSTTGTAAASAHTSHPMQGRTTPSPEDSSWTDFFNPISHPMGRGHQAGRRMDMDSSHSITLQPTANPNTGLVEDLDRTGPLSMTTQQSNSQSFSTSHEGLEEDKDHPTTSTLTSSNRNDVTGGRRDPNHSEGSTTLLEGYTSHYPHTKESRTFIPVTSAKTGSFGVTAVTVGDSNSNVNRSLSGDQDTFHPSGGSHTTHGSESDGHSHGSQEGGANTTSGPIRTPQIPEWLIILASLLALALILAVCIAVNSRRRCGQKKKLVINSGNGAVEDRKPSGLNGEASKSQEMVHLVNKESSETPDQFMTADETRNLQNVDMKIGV

B1: recombinant E-selectin human immunoglobulin chimeric protein (Fc fusion)
chain: WSYNTSTEAMTYDEASAYCQQRYTHLVAIQNKEEIEYLNSILSYSPSYYWIGIRKVNNVWVWVGTQKPLTEEAKNWAPGEPNNRQKDEDCVEIYIKREKDVGMWNDERCSKKKLALCYTAACTNTSCSGHGECVETINNYTCKCDPGFSGLKCEQIVNCTALESPEHGSLVCSHPLGNFSYNSSCSISCDRGYLPSSMETMQCMSSGEWSAPIPACNVVECDAVTNPANGFVECFQNPGSFPWNTTCTFDCEEGFELMGAQSLQCTSSGNWDNEKPTCKAVTCRAVRQPQNGSVRCSHSPAGEFTFKSSCNFTCEEGFMLQGPAQVECTTQGQWTQQIPVCEAFQCTALSNPERGYMNCLPSASGSFRYGSSCEFSCEQGFVLKGSKRLQCGPTGEWDNEKPTCEAVRCDAVHQPPKGLVRCAHSPIGEFTYKSSCAFSCEEGFELHGSTQLECTSQGQWTEEVPSCQVVKCSSLAVPGKINMSCSGEPVFGTVCKFACPEGWTLNGSAARTCGATGHWSGLLPTCEAPTESNIP
A word on the koff: it is the first-order rate constant of dissociation. The term kon denotes the rate constant with which the complex forms. As a reminder, the Kd is the free concentration of one partner at which half of the binding sites on the other are occupied at equilibrium, for simple one-to-one binding. Read a low Kd as tighter binding. As to B1, the koff in [1] came out at 0.0002 s⁻¹; in assay [2] it was 0.00033 s⁻¹; in assay [3], 0.000165 s⁻¹; in assay [4], 0.000262 s⁻¹; in [6], 0.00045 s⁻¹; in assay [9] it was 0.00042 s⁻¹. Further, the kon in [1] was determined as 794 M⁻¹ s⁻¹; in assay [3], 797 M⁻¹ s⁻¹; in assay [4], 1140 M⁻¹ s⁻¹; in assay [9], 1060 M⁻¹ s⁻¹. The Kd was 237 nM in assay [5]; 145 nM in assay [7]; 259 nM in assay [8]; 229 nM in assay [10]; 442 nM in [11].
